Test results as given in patent publication US20170107294A1, “ANTI-CD14 ANTIBODIES AND USES THEREOF” (Nordlandssykehuset HF, priority 2014, published 2017).

Assays:
porcine whole blood [1] = assay: Whole blood ex vivo model of inflammation, E. coli-induced cytokine release in porcine blood; format: cell-based; conditions: heat-inactivated E. coli
Method: (§1) The whole blood model has been described in detail previously (36). Fresh human venous or porcine arterial blood was drawn directly into tubes containing the anticoagulant lepirudin (Pharmion) at a final concentration of 50 mg/ml. In 1.8-ml Cryo Tube vials (Nunc, Roskilde, Denmark), the blood was preincubated with up to 20 mg/ml anti-human CD14 (r18D11 or 18D11), or 50 mg/ml anti-porcine CD14 (rMil2 or Mil2) at 37° C. for 10 min prior to an additional 2-h incubation in the presence of 100 ng/ml ultrapure LPS from Escherichia coli 0111:B4 (InvivoGen, San Diego, Calif.) for human blood or 1 3 105/ml heat-inactivated E. coli (strain LE392, ATCC33572) for porcine blood. As negative controls, PBS with MgCl2 and CaCl2 (Sigma-Aldrich) and isotype controls were used. Adverse effects were tested using nonactivated whole blood samples. After the addition of 10 mM (human) or 20 mM (porcine) EDTA, plasma was gained by 15 min centrifugation at 3220 3 g and 4° C. Levels of TNF, IL-6, and IL-1b in human plasma were determined using Bioplex technology (Bio-Rad Laboratories AB). Levels of TNF, IL-1b, and IL-8 in porcine plasma were determined using ELISA (Quantikine, R&D Systems, Minneapolis, Minn.). Platelet count was quantified by impedance using a CELL-DYN Sapphire hematology analyzer (Abbott Laboratories, Abbott Park, Ill.).

porcine whole blood [2] = assay: Adverse (IgG-Fc mediated) effects in nonactivated porcine whole blood; format: cell-based; conditions: absence of inflammatory stimuli; for spontaneous IL-8 release: 50 mg/ml; for platelet counts / platelet aggregation: up to 71.4 mg/ml
Method: as §1

porcine whole blood [3] = assay: rMil2 combined with C5 inhibitor OmCI: cytokine production in porcine whole blood ex vivo; format: cell-based; conditions: E. coli-incubated porcine whole blood
Method: as §1
Whole blood was incubated with 1 3 106 E. coli per milliliter for 2 h at 37° C. in the absence or presence of inhibitors and controls. TNF, IL-1b, and IL-8 blood was analyzed as described above.

[4] = set-up: species or system Norwegian domestic piglets (Sus scrofa domesticus); conditions: in vivo, iv; for heart rate (effect in words): 0.32 mg/kg
Method: (§2) In vivo application of anti-porcine CD14 Abs Norwegian domestic piglets (Sus scrofa domesticus, outbred stock) with a weight of 2.2 kg were isolated at the day of intervention. Anesthesia was induced with 5% sevoflurane in a mixture of air and oxygen until sleep. After establishment of an i.v. line, the piglets received fentanyl (15-20 mg/kg) were tracheotomized in the supine position, and a microcuffed endotracheal tube from Kimberly-Clark (Roswell, GA) with inner diameter of 4 mm was inserted. Maintenance anesthesia was provided with an infusion of fentanyl (50 mg/kg/h, and isoflurane 1-2% in oxygen-enriched air administered from a Leon plus ventilator from Heinen and Loevenstein (Bad Ems, Germany). An artery line was inserted in the right or left carotid artery for blood sampling during the experiments and for continuous measurement of mean artery pressure. The piglets were monitored with electrocardiography and pulse oximetry. Ventilator settings were adjusted to maintain 7.40 pH and oxygen saturation above 96%. Hemodynamic parameters were collected using ICUpilot software, CMA Microdialysis (Stockholm, Sweden) every 30 s. To compensate for hydration needs, the animals received a background infusion of isotonic sodium glucose solution, Salidex (Braun Medical A/S, Vestskogen, Norway) at 10 ml/kg/h. To compare the effect of the Mil2 and the rMil2 on healthy piglets, increasing amounts of a stock solution of 1 mg/ml rMil2 or Mil2 (batch 1106) were injected i.v. into two piglets at indicated times to a maximum dose of 5.36 mg/kg, and arterial blood samples were collected, in tubes containing the anticoagulants EDTA or citrate. To investigate the biological effect of rMIL2 on the inflammatory response, two piglets underwent the E. coli sepsis regimen as described previously (17). One control piglet was gives saline, and one piglet was given a bolus dose of 5 mg/kg rMil2 before infusion of the bacteria.

[5] = test system: E. coli-induced cytokine response; assay: In vivo E. coli sepsis regimen in piglets, cytokine response; set-up: species or system Norwegian domestic piglets (Sus scrofa domesticus); conditions: bolus 5 mg/kg before i.v. E. coli; vs saline control piglet
Method: as §2

porcine CD14 [6] = target: T1, porcine CD14 (Sus scrofa, UniProt F6PST4); assay: Leukocyte CD14 expression before and after rMil2 bolus in a piglet, flow cytometry; format: in vivo, Norwegian domestic piglets (Sus scrofa domesticus); set-up: endogenous in cells; conditions: after bolus dose of 5 mg/kg
T1 sequence (F6PST4 21-373): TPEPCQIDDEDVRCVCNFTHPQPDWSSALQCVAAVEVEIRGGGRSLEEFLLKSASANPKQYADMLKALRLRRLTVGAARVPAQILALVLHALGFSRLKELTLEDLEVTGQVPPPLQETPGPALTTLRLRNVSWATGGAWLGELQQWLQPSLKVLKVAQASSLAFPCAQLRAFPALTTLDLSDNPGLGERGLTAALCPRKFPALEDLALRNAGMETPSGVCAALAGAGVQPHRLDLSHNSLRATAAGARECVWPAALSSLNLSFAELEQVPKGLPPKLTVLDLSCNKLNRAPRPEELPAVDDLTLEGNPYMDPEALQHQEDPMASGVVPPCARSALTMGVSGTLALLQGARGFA
Method: as §2, with “To compare the effect of the Mil2 and the rMil2 on healthy piglets, increasing amounts of a stock solution of 1 mg/ml rMil2 or Mil2 (batch 1106) were injected i.v. into two piglets at indicated times to a maximum dose of 5.36 mg/kg, and arterial blood samples were collected, in tubes containing the anticoagulants EDTA or citrate. To investigate the biological effect of rMIL2 on the inflammatory response, two piglets underwent the E. coli sepsis regimen as described previously (17). One control piglet was gives saline, and one piglet was given a bolus dose of 5 mg/kg rMil2 before infusion of the bacteria.” left out

porcine CD14 [7] = target: T1, porcine CD14; assay: CD14 binding in flow cytometry, porcine whole blood (competition with FITC-conjugated Mil2); set-up: human monocyte and porcine granulocyte populations were selected based on the forward scatter-side scatter dot plot; endogenous in cells; host or cells: granulocytes in fresh porcine whole blood (EDTA); binding sites blocked (competition with FITC-conjugated Mil2 in binding to CD14) / direct binding to porcine granulocytes: dose or concentration left out as unconfirmed; conditions: for binding sites blocked (competition with FITC-conjugated Mil2 in binding to CD14): Ab, granulocytes in porcine whole blood
Method: Fresh human or porcine whole blood was drawn into tubes containing the anticoagulants lepirudin (Refludan; Pharmion, Copenhagen, Denmark) or EDTA, respectively. Blood samples were preincubated for 10 min with Ab, #20 mg/ml anti-human CD14 Abs r18D11, 18D11 F(ab)92 (batch 2068, lot 1383), or isotype controls raNIP and mIgG1 F(ab)92 (lot 1501), or […] anti-porcine CD14 Abs rMil2, Mil2 (lot 1106), or the isotype controls 4770 RECOMBINANT ANTI-CD14 Abs Downloaded from University of Oslo, Library of Medicine and Health Science on Jan. 24, 2014 for IgG2/4 and mIgG2b, eculizumab (Soliris) and mIgG2b (lot 1631), respectively. Endotoxin-free Dulbecco phosphate buffered saline, PBS (Sigma-Aldrich), was used for diluting the Abs. Subsequently, blood samples were incubated for another 15 min in the presence of detection Ab, 10 mg/ml 18D11 (batch 719, lot 3110) or 150 mg/ml FITC-conjugated Mil2 (batch 1107). Their binding was detected either by using a secondary PEconjugated anti-mouse IgG or through direct FITC fluorescence. Erythrocytes were lysed using FACS Lysing solution (BD Biosciences, Franklin Lakes, N.J.; human blood) or a solution of 0.16 M ammonium chloride, 10 mM sodium bicarbonate, 0.12 mM EDTA (Tritiplex III) and 0.04% (v/v) paraformaldehyde (porcine blood). In subsequent flow cytometry analyses, human monocyte and porcine granulocyte populations were selected based on the forward scatter-side scatter dot plot, and CD14 binding was recorded as mean or median fluorescence intensity, respectively. In contrast to humans, porcine CD14 is constitutively expressed on mature granulocytes (32, 33). Fluorescence intensities in the presence of the fluorescently labeled Abs only were set to 100%. Flow cytometry analyses on human samples were performed using an LSRII and FACSDiva software version 5.0.3; porcine samples were analyzed on a FACSCalibur using Cell Quest Pro version 5.2.1 for data acquisition (all from BD Biosciences).

E. coli = conditions: whole pig blood; cited from earlier work

Molecule	block of IL-1b release compared with Mil2 (porcine whole blood [1])	inhibition of TNF release compared with Mil2 (porcine whole blood [1])	spontaneous IL-8 release (porcine whole blood [2])	platelet counts / platelet aggregation (porcine whole blood [2])	IL-1b release (effect in words) (porcine whole blood [3])	IL-8 release (effect in words) (porcine whole blood [3])	TNF release (effect in words) (porcine whole blood [3])	heart rate (effect in words) [4]	IL-1b reduction (area under the curve) [5] [%]	IL-6 reduction (area under the curve) [5] [%]	IL-8 reduction (area under the curve) [5] [%]	TNF reduction (area under the curve) [5] [%]	reduction in leukocyte CD14 expression (saturation of CD14) (porcine CD14 [6]) [%]	binding sites blocked (competition with FITC-conjugated Mil2 in binding to CD14) (porcine CD14 [7]) [%]	direct binding to porcine granulocytes (porcine CD14 [7]; not shown)	displacement of original clone Mil2 from CD14+ granulocytes (porcine CD14 [7]; porcine whole blood)	maximum heart rate [4] [beats/min]	E. coli survival (E. coli)
rMil2: recombinant anti-porcine CD14 mouse/human chimeric IgG2/4 Ab; VL SEQ ID NO:3, VH SEQ ID NO:4 (antibody, V domains shown, human IgG2/4 constant regions) VH: MGWSCIILFLVATATGVHSQVRLQQPGAELVRPGASVKLSCKASGYTFTTYWMNWVKQRPEDGLEWIGRIDPYDSETHYNQNFKDKAILTVDKSSSTAYMQLSSLTYEDSAVYYCTRKEGRQWGAYFDYWGQGTTLTVSSA VL: MGWSCIILFLVATATGVHSDIVMTQSQKFMSTSVGDRVSVTCKASQYVGTNVAWYQQKPGQSPKALIQSASYRCSGVPDRFTGSGSGTDFTLTISNVQSEDLADYFCQQYNTYVTFGGGTKLELKR	as effective as Mil2	slightly less inhibitory	Neither IL-8 secretion nor platelet drop nor aggregation was observed	Neither IL-8 secretion nor platelet drop nor aggregation was observed	significantly reduced the production	seemed to be substantial, but did not reach statistical significance	significantly reduced	but not rMil2, caused an increase in heart rate	89	88	100	71	94	~50	saturated	effectively bound to and displaced the original clone		
Mil2: mouse anti-porcine CD14 IgG2b clone Mil2 (Serotec), original murine clone (antibody, V domains shown) VH: QVRLQQPGAELVRPGASVKLSCKASGYTFTTYWMNWVKQRPEDGLEWIGRIDPYDSETHYNQNFKDKAILTVDKSSSTAYMQLSSLTYEDSAVYYCTRKEGRQWGAYFDYWGQGTTLTVSSA VL: DIVMTQSQKFMSTSVGDRVSVTCKASQYVGTNVAWYQQKPGQSPKALIQSASYRCSGVPDRFTGSGSGTDFTLTISNVQSEDLADYFCQQYNTYVTFGGGTKLELKR			strong spontaneous IL-8 release	dose-dependent drop in platelet counts	not significantly reduced	markedly enhanced the release	significantly reduced	caused an increase in heart rate						~50			~300	does not affect E. coli survival
